For ten sequences, Kd results are on record in the Immune Epitope Database (IEDB).

For one assay, the target named is HLA-C*15:02. In words: IEDB peptide-MHC binding, purified MHC/direct/fluorescence; filed as Kd, often an IC50 or EC50 that approximates it; ≥ and ≤ were set here for values at or beyond the usual limits of such assays. The note with it: source organism: Yersinia frederiksenii ATCC 33641.
Another assay deals with HLA-C*03:03. The assay is described as above. As to conditions: source organism: Yersinia frederiksenii ATCC 33641.
The target in a further assay is HLA-C*12:03. The assay is described as above. The note with it: source organism: Yersinia frederiksenii ATCC 33641.
Assay [1] addresses HLA-B*39:01. The description is as above.
The target of another assay is HLA-B*15:09. Described as above.
A further assay deals with HLA-C*14:02. The description is as above. The note with it: source organism: Salmonella enterica subsp. enterica serovar Typhi str. CT18.
Assay [2] concerns the target HLA-B*40:01. The experiment in a line: IEDB peptide-MHC binding, purified MHC/competitive/fluorescence; filed as Kd, often an IC50 or EC50 that approximates it; ≥ and ≤ were set here for values at or beyond the usual limits of such assays.
Assay [3] concerns the target HLA-A*68:02. In words: IEDB peptide-MHC binding, purified MHC/direct/fluorescence; filed as Kd, often an IC50 or EC50 that approximates it; ≥ and ≤ were set here for values at or beyond the usual limits of such assays. As to conditions: source organism: Francisella tularensis subsp. holarctica LVS.
A further assay deals with HLA-B*57:01. Described as above.
Another assay concerns the target HLA-B*27:05. The assay is described as above.
The next assay has as its target HLA-A*69:01. The assay is described as above.
The target of another assay is HLA-A*31:01. Described as above.
For a further assay, the target named is HLA-B*07:02. The assay is described as above.
In another assay the target is HLA-B*18:01. The assay is described as above.
The next assay deals with HLA-A*11:01. The description is as above.
The target in a further assay is HLA-B*48:01. Described as above. The note with it: source organism: Francisella tularensis subsp. holarctica LVS.
In the next assay the target is HLA-B*58:01. The description is as above.
A further assay deals with HLA-A*01:01. The description is as above.
The target of another assay is HLA-B*15:17. Described as above.
Assay [4] concerns the target HLA-B*15:01. The experiment in a line: IEDB peptide-MHC binding, purified MHC/competitive/fluorescence; filed as Kd, often an IC50 or EC50 that approximates it; ≥ and ≤ were set here for values at or beyond the usual limits of such assays.
Another assay deals with HLA-A*02:03. The assay is described as above. The note with it: source organism: Francisella tularensis subsp. tularensis FSC198.
The target of the next assay is HLA-A*26:02. The description is as above. As to conditions: source organism: Francisella tularensis subsp. tularensis FSC198.
Assay [5] deals with HLA-B*08:01. Described as above. The note with it: source organism: Francisella tularensis subsp. tularensis FSC198.
Assay [6] deals with HLA-B*15:01. The experiment in a line: IEDB peptide-MHC binding, purified MHC/direct/fluorescence; filed as Kd, often an IC50 or EC50 that approximates it; ≥ and ≤ were set here for values at or beyond the usual limits of such assays.
The next assay addresses HLA-A*26:01. The assay is described as above.
The target of assay [7] is HLA-A*02:01. The description is as above.
The target of a further assay is HLA-A*24:03. Described as above. The note with it: source organism: Bacillus anthracis.
The target in the next assay is HLA-A*23:01. The description is as above. As to conditions: source organism: Bacillus anthracis.
The target in another assay is HLA-A*24:02. The assay is described as above. The note with it: source organism: Bacillus anthracis.
The target of assay [8] is HLA-B*08:01. The assay is described as above.
The next assay concerns the target HLA-A*03:01. Described as above.
For assay [9], the target named is HLA-A*68:02. The experiment in a line: IEDB peptide-MHC binding, purified MHC/competitive/fluorescence; filed as Kd, often an IC50 or EC50 that approximates it; ≥ and ≤ were set here for values at or beyond the usual limits of such assays. As to conditions: source organism: Bacillus anthracis str. A2012.
The target of the next assay is HLA-A*02:12. The assay is described as above. As to conditions: source organism: Haemophilus influenzae 22.1-21.
For another assay, the target named is HLA-A*02:11. The assay is described as above. The note with it: source organism: Haemophilus influenzae 22.1-21.
Assay [10] deals with HLA-A*02:01. The description is as above. As to conditions: source organism: Yersinia pestis Nepal516.
The target of assay [11] is HLA-B*39:01. The description is as above. As to conditions: source organism: Yersinia pestis Nepal516.
For a further assay, the target named is HLA-A*30:01. The experiment in a line: IEDB peptide-MHC binding, purified MHC/direct/fluorescence; filed as Kd, often an IC50 or EC50 that approximates it; ≥ and ≤ were set here for values at or beyond the usual limits of such assays. The note with it: source organism: Vibrio parahaemolyticus.
Assay [12] has as its target HLA-B*40:01. The assay is described as above. As to conditions: source organism: Vibrio parahaemolyticus.
The next assay deals with HLA-B*35:01. The description is as above. The note with it: source organism: Vibrio parahaemolyticus.
The target of a further assay is HLA-B*44:02. The description is as above. The note with it: source organism: Vibrio parahaemolyticus.
Setting [13] is: source organism: Francisella tularensis subsp. holarctica LVS.
[14] abbreviates: source organism: Francisella tularensis subsp. tularensis FSC033.
[15] abbreviates: source organism: Bacillus anthracis.
[16] abbreviates: source organism: Bacillus anthracis str. A0465.
Setting [17] is: source organism: Escherichia coli B171.
Where [18] appears, read: source organism: Haemophilus influenzae.
Where [19] appears, read: source organism: Yersinia pestis Nepal516.
Setting [20] is: source organism: Vibrio parahaemolyticus.

Regarding LAIEATLAF, the Kd (as a rule, the equilibrium constant for the complex coming apart) with HLA-C*15:02 was at least 20 µM; with HLA-C*03:03, at least 20 µM; in the assay with HLA-C*12:03, 1.04 µM.
For the sequence EHIPTMKIF, the Kd in the assay with HLA-B*39:01 [1] (source organism: Camelpox virus M-96) turned out to be 1.34 µM; with HLA-B*15:09 (source organism: Variola virus) it was 0.304 µM.
AETLMAQPF: the Kd stood at 2.31 µM with HLA-C*14:02 and 0.0122 µM in the assay with HLA-B*40:01 [2] (source organism: Salmonella enterica subsp. enterica serovar Typhi).
KRINSLIKY: the Kd was at least 20 µM in the assay with HLA-A*68:02 [3]; at least 20 µM with HLA-B*57:01 (setting [13]); 0.132 µM in the assay with HLA-B*27:05 (setting [13]); at least 20 µM with HLA-A*69:01 (setting [13]); at least 20 µM with HLA-A*31:01 (setting [13]); at least 20 µM in the assay with HLA-B*07:02 (setting [13]). Also, the Kd with HLA-B*18:01 (setting [13]), with HLA-A*11:01 (setting [13]), with HLA-B*39:01 [1] (setting [14]), with HLA-B*48:01, in the assay with HLA-B*58:01 (setting [13]) and in the assay with HLA-B*15:09 (setting [14]) was at least 20 µM in each case. Besides, the Kd was at least 20 µM with HLA-A*01:01 (setting [13]); at least 20 µM with HLA-B*15:17 (setting [13]); 3 µM in the assay with HLA-B*15:01 [4] (source organism: Francisella tularensis subsp. tularensis FSC198); 2.47 µM with HLA-A*02:03; at least 20 µM with HLA-A*26:02; at least 20 µM with HLA-B*08:01 [5].
For HHSLTHHQL, the Kd with HLA-B*15:09 (source organism: Escherichia coli O157:H7 str. EC869) was found to be 0.002 µM.
With YFENSDLNL, the Kd with HLA-B*15:01 [6] (setting [15]) is at least 5 µM; in the assay with HLA-A*26:01 (setting [16]) it was at least 20 µM; in the assay with HLA-B*57:01 (setting [15]), at least 20 µM; with HLA-A*02:01 [7] (setting [15]) it was at least 20 µM; with HLA-A*24:03, 0.13 µM; with HLA-A*23:01, 0.65 µM. Besides, the Kd is at least 20 µM with HLA-B*27:05 (setting [15]); 7.5 µM with HLA-A*24:02; at least 20 µM with HLA-A*31:01 (setting [15]); at least 20 µM with HLA-B*07:02 (setting [15]); at least 20 µM in the assay with HLA-B*18:01 (setting [15]); at least 20 µM with HLA-A*11:01 (setting [15]). Further, the Kd in the assay with HLA-B*39:01 [1] (setting [16]), with HLA-B*08:01 [8] (setting [16]), with HLA-B*58:01 (setting [15]), in the assay with HLA-B*15:09 (setting [16]), in the assay with HLA-A*01:01 (setting [15]) and with HLA-B*15:17 (setting [15]) was at least 20 µM throughout. Besides, the Kd in the assay with HLA-A*03:01 (setting [15]) and with HLA-A*68:02 [9] was at least 20 µM each time.
Consider AELRLVHEL, for which the Kd was at least 20 µM with HLA-B*15:01 [4] (setting [17]) and 0.0069 µM with HLA-B*40:01 [2] (setting [17]).
Regarding RFLEDYFGV, the equilibrium dissociation constant (Kd) with HLA-A*02:01 [7] (setting [18]) is 0.141 µM; in the assay with HLA-A*69:01 (setting [18]), 0.547 µM; with HLA-A*31:01 (setting [18]) it was 0.558 µM; with HLA-A*02:12 it was 0.0443 µM; with HLA-A*02:11, 0.0041 µM.
In the case of SQMGLSCAL, the Kd in the assay with HLA-B*15:01 [4] (setting [19]) was 0.0976 µM; with HLA-B*40:01 [2] (setting [19]), 0.567 µM; with HLA-A*02:01 [10], 0.0046 µM; with HLA-B*39:01 [11], 0.0035 µM.
Take VMETENALF: the dissociation constant Kd in the assay with HLA-B*15:01 [6] (setting [20]) is 0.301 µM; in the assay with HLA-A*26:01 (setting [20]) it was at least 20 µM; with HLA-A*30:01 it was at least 44.8 µM; with HLA-B*40:01 [12] it was at least 20 µM; with HLA-A*02:01 [7] (setting [20]), at least 20 µM; with HLA-B*35:01, 0.427 µM. Besides, the Kd with HLA-B*27:05 (setting [20]), with HLA-A*69:01 (setting [20]), in the assay with HLA-A*31:01 (setting [20]), with HLA-A*11:01 (setting [20]), with HLA-B*08:01 [8] (setting [20]) and with HLA-B*44:02 was at least 20 µM throughout. In addition, the Kd in the assay with HLA-A*01:01 (setting [20]) is 5.02 µM; in the assay with HLA-A*03:01 (setting [20]), at least 20 µM.
